Reference: the RNAGym collection of RNA variant scans (doi:10.7554/elife.90254)

B1: OR4K15 (parent)
chain: GUUAACGGUCAUAGGCCAUGGAAACUAGGAGCACCAUUUCGCUGCCAGUGAAGAAAUGAACAAAGAAAAUCUGGGCCAGGCAGGCAUCAAAAGAAAUAGUCUUGCGCUCAACCAGAAAGUCUGUAAUCAUUUUAAGGGUA

Variants of: B1
Assay: self-cleavage, relative activity (ratio to wild type); higher = more cleavage; in vitro, sequencing; the parent is a self-cleaving ribozyme

Variant | self-cleavage
A96U U127C | 1.7
A24U A56G | 2.25
A27G A55G | 1.57
A69U U87A | 1.79
A52U A94U | 1.94
U38C A118U | 0.98
A24U U122C | 1.08
A62G A68G | 1.12
A68G G136C | 1.93
A94U A116G | 0.48
A52U U72G | 0.39
U26A A78G | 0.17
U2G U132C | 1.4
A118U U120C | 0.08
A11G U12C | 1.07
U2C U139A | 0.92
U38C A66G | 1.97
A18U A69G | 1.92
A5U A56U | 1.15
G74A U120C | 0.1
A59U A90C | 1.63
U26A A63C | 1.71
A114U A116U | 0.03
U19A A64G | 1.03

Variant | self-cleavage
G7A | 1.65
U26C A27C | 2.1
A135G G137A | 0.09
A22U A59G | 1.48
A18C A52G | 1.51
A36G A126G | 1.48
U38A U57C | 0.69
U57A A114G | 0.38
A23U A117U | 0.6
G15U A56G | 1.89
C46U A67G | 1.56
C71A U120C | 0.24
G83U A135G | 0.56
U37A A66G | 1.72
A54G U70C | 0.61
A78U A94G | 0.33
U102C A126U | 1.39
U12C A126U | 0.52
G7U A18G | 1.68
A30U A62G | 1.16
A68G A118C | 0.67
C42U U103A | 1.01
G28A A64G | 1.4
U12A A18G | 1.65

Variant | self-cleavage
A56G U131A | 0.6
C113A U130C | 0
A30G A36U | 1.32
A54G G137U | 1.44
U122A U127C | 0.98
C42U U130C | 1.09
A95G U139C | 2.07
A18U A63G | 0.84
U19C U57C | 1.37
A51G G123A | 2.08
G83U A116G | 0.2
A91C A114U | 0.05
U57C U70A | 0.68
G80A A129G | 0.09
A52G A117U | 0.97
U57C A78G | 0.23
A63G A92U | 1.35
A51U A94U | 1.26
G14A A140G | 1.89
A4G A126G | 1.09
A116U G136A | 0.07
A22G A23U | 1.26
G7A A63G | 1.86
A27C A36C | 2.11

Variant | self-cleavage
U87C A118C | 0.4
A27G A89U | 2
A30G A47C | 1.21
U72G U103C | 0.07
U12C A59U | 0.65
A36U A51U | 1.72
G7A U133A | 0.79
A18U U43G | 1.5
A4G A86G | 0.72
U12A A135G | 1.47
A78G U103A | 0.08
U72C U87C | 0.22
G50A A95U | 1.28
U2G U57C | 1.13
A66G A118C | 1.11
A11G U37C | 1.16
A54U A95G | 2.47
G21C A78G | 0.27
A18G U43C | 1.52
A82U A90U | 0.08
G44A U130C | 0.64
U108G U139C | 0
C109U U133C | 0.37
A78G A82G | 0.13

Variant | self-cleavage
U26C U57C | 1.44
A52G A98U | 2.16
U12A A33U | 1.4
G44A G93C | 1.87
C17U A95G | 2.06
U102C A111G | 0.01
A24C A82G | 0.62
U103A A140U | 0.46
A62C G83A | 2.18
A52G A135U | 1.37
A68G U102C | 1.9
U70A A92G | 0.4
U87C U127A | 2.12
A69U | 1.81
G74A A94G | 0.13
U43A C105U | 0.1
A54G U87A | 1.79
C34A A51G | 1.27
A18U A24G | 1.31
U19C A134G | 1.62
A33G A111U | 0.06
A22G A66G | 1.25
U103A U124C | 0.07
A62G U139C | 1.62

Variant | self-cleavage
A30G A90U | 1.68
A92C A111G | 0.03
U87C C112G | 0.02
G50U U132C | 1.23
A36U U108C | 0.02
C35U U132C | 0.37
A27U U38C | 1.83
U2A U43G | 1.11
G41U A91G | 1.31
A69U A110G | 0.09
A89U U122A | 0.6
A24U U37C | 1.82
A63C G79A | 0.09
A116G A117G | 0.55
U87C C105U | 0.13
U3C U124C | 0.9
A86C A89G | 1.17
A52G U131C | 1.51
U87A U130C | 1.36
A52U U87A | 1.78
A18G G104A | 0.02
U108C A117C | 0.06
A95G A114U | 0.42
U70A U103C | 0.68

Variant | self-cleavage
U12C A86G | 0.8
A24G U72C | 0.27
A11G A67U | 1.16
U9G A68G | 0.72
A66G A110C | 0.37
G75A A134G | 0.09
A55G C101U | 0.38
A67G A68G | 1.5
A89C C107U | 0.04
U2A A23C | 0.29
A55G A62G | 0.75
C71U A129G | 0.08
A82G U130C | 0.14
U87C U132A | 0.81
A94U A118G | 1.51
U19G C40A | 1.04
A24C U139C | 2.1
U122C U127A | 2.22
A92U A94U | 2.03
A22U A52G | 1.63
A86G U108A | 0.01
A33G A126C | 0.86
A90U U124G | 1.66
